From patent US20180298051A1 (Scripps Research, published 2018)
Ends that are not written are not given here.

Target: T1, RXFP1 on RXFP1 CRE-Bla cells (human, UniProt Q9HBX9 1-757)
T1 sequence (looked up): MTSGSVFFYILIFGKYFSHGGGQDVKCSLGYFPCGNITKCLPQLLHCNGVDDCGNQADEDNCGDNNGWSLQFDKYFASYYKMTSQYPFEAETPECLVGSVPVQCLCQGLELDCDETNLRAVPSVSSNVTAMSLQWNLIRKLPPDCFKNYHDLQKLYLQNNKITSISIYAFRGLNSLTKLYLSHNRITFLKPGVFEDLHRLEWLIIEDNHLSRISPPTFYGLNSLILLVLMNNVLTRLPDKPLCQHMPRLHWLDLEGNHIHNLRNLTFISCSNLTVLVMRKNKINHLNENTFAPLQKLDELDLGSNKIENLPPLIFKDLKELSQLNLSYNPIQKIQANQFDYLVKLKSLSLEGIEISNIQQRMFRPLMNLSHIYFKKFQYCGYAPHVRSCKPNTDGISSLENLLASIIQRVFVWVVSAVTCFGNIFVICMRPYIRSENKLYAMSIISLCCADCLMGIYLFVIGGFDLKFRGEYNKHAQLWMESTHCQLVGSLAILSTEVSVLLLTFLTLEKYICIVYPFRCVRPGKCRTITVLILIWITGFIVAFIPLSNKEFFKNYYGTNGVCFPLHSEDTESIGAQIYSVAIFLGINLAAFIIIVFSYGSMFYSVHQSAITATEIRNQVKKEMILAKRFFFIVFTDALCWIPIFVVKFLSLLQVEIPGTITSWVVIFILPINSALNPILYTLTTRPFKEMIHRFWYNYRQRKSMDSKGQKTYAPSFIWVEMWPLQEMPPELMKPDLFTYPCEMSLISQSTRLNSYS
Assay: cell-based or functional assay

B1: relaxin-H2 protein (R&D Systems) (ligand)
chain 1: QLYSALANKCCHVGCTKRSLARFC
chain 2: DSWMEEVIKLCGRELVRAQIAICGMSTWS
modifications: disulfide (positions not given here); ends not checked; also: three disulfides: two between A and B chains, one within A chain, pairings not given here
EC50, in vitro FRET assay, RXFP1 CRE-Bla cells: 4.9 nM
